These results are taken from US6964763.

The test has as its target Recombinant baculovirus-expressed HIV-1 gp120 derived from the LAV isolate (HIV-1 isolate LAV (LAI)), P03377. The test is described as follows: competition: 125I-CD4 on immobilized gp120, 10-fold molar excess of peptide; isolate (MN or LAI) not stated.

For the molecule CSVTCG (modifications not checked) [CSVTCG peptide derived from TSP1 properdin-like Type 1 repeat], the % inhibition (in general, the percentage by which the read-out fell short of the control) stood at 53%.
